Results published in patent US20090074766A1, “Methods of inhibiting HIV-2 infection” (priority 2007, published 2009).
Values joined by “and” are separate entries in the source; they are usually repeats but may differ in a detail not shown here. Identical values can stand only once.

How the values were obtained:
Assay type in all cases: cell-based
[1] = test system: primary R5 HIV-1 isolates; assay: Whole virus replication (neutralization) assay in PBMC, p24 ELISA; settings: variety of primary R5 strains (FIG. 1)
Experimental: The data reflect the median values from 8 or more independent assays. The genetic subtypes of the viruses are indicated in parentheses.
Replication of authentic HIV-1 is measured in activated peripheral blood mononuclear cells (PBMCs) using the monocyte/macrophage-tropic HIV-1 clone, JRFL (HIV-1JRFL), for these studies.
PBMCs are isolated from 4 separate donors (Leukopacks) by centrifugation on a Ficoll gradient. CD8 cells are depleted using RosetteSep CD8 Depletion Cocktail (#15663, StemCell Research, Vancouver, BC). […]
Serial dilutions of virus are tested in quadruplicate on activated PBMCs (1.4×10^5 PBMC/well). […] Virus titer is determined by the method of Reed and Muench (Table 11, see below). […]
The percent inhibition is derived as follows [1−(p24 levels in the presence of drug/p24 levels in the absence of drug)]×100. IC50 values are determined by fitting the inhibition data with a non-linear, four-parameter, variable slope equation (GraphPad Prism, ver. 4.02; GraphPad Software, San Diego, Calif.). […]
Serial dilutions of virus are tested in quadruplicate on activated PBMCs (1.4×10^5 PBMC/well). […] Virus titer is determined by the method of Reed and Muench (Table 11).

R5 HIV-2 SLRHC = assay: Inhibition of replication in PBMC cultures, RT activity readout: HIV-2 SLRHC
Experimental: (§1) Viruses: All virus isolates were grown and titered exclusively in stimulated PBMC as described previously. […] The HIV-2 isolates used in this study have been previously described (Owen, S. M., Ellenberger, D., Rayfield, M., Wiktor, S., Michel, P., Grieco, M. H., Gao, F., Hahn, B. H., and Lai, R. B. 1998. Genetically Divergent Strains of Human Immunodeficiency Virus Type 2 Use Multiple Coreceptors for Entry. J Virol 72:5425-5432) and were obtained from the NIH AIDS Research and Reference Reagent Program.
(§2) PA14 (Lot # DF-021204) was produced for reagent use in the Research & Development laboratories of Progenics Pharmaceuticals Inc.
(§3) Inhibition of HIV-1 and HIV-2 replication in PBMC cultures: PBMC were isolated from 34 healthy blood donors with Ficoll-Hypaque (all media from Cellgro, Herndon, Va.) and depleted of CD8+ cells using RosetteSep CD8 depletion cocktail (StemCell Technologies) according to the manufacturer's instructions. Equal numbers of cells from each donor were then separately stimulated with 5 ug phytohemagglutinin/ml (Sigma, St. Louis, Mo.) or with surface-immobilized anti-CD3 antibody OKT3 in RPMI 1640 medium containing 10% fetal calf serum, 100 Units of interleukin-2/ml (NIH AIDS Research and Reference Reagent Program), glutamine, and antibiotics (PBMC culture medium) as previously described. After 72 hours, equal numbers of PBMC stimulated by one of these two methods from each donor were combined for use in infection assays as follows. […] The virus inoculum was adjusted to 400 to 2,000 times the TCID50 per ml in PBMC culture medium, and a 50-ul aliquot was added to each culture. The inhibitory doses refer to the concentrations of the agents present at this point in the culture, when virus, cells, and inhibitors were all present at their final concentrations. Reverse Transcriptase (RT) activity was measured on Day 7 post infection (pi) for HIV-1 and Day 10 pi for HIV-2 by the Reverse Transcriptase Assay, Colorimetric kit, #11 468 120 910, Roche (Switzerland) according to the manufacturer's instructions with the following exception: neither ultracentrifugation nor PEG precipitation of the culture supernatants was performed before viral lysis.
(§4) The inhibition data were analyzed using GraphPad Prism software (GraphPad Software, San Diego, Calif.). A 4-parameter logistic fit was used calculate the concentration of inhibitor that afforded a 50% and a 90% reduction in RT activity. […] The % inhibitions where best-fit curve reached a top plateau, also as calculated by GraphPad Prism software, are reported as well as maximum percent inhibition (MPI). […] Inhibition curves with a poor sigmoid fit (R^2<0.7) were excluded from data analysis.

R5 HIV-2 310072 = assay: Inhibition of replication in PBMC cultures, RT activity readout: HIV-2 310072
Experimental: as §1, §2, §3, §4

B1: PRO 140: humanized IgG4,κ anti-CCR5 monoclonal antibody, humanized version of murine mAb PA14 (antibody, chains of the INN, looked up, V domains shown)
VH: EVQLVESGGGLVKPGGSLRLSCAASGYTFSNYWIGWVRQAPGKGLEWIGDIYPGGNYIRNNEKFKDKTTLSADTSKNTAYLQMNSLKTEDTAVYYCGSSFGSNYVFAWFTYWGQGTLVTVSS
VL: DIVMTQSPLSLPVTPGEPASISCRSSQRLLSSYGHTYLHWYLQKPGQSPQLLIYEVSNRFSGVPDRFSGSGSGTDFTLKISRVEAEDVGVYYCSQSTHVPLTFGQGTKVEIK
IC90 [1]: 3 to 4 µg/mL
EC50 (median) (R5 HIV-2 SLRHC; HIV-2 SLRHC, R5): 0.57 µg/mL
EC90 (median) (R5 HIV-2 SLRHC; HIV-2 SLRHC, R5): 21 µg/mL
MPI (maximum percent inhibition) (R5 HIV-2 SLRHC; R5 HIV-2 SLRHC, individual assays (Source)): 104% and 135% and 127% and 150%
MPI, Median (R5 HIV-2 SLRHC; R5 HIV-2 SLRHC, median of assays): 135%
EC50 (median) (R5 HIV-2 310072; HIV-2 310072, R5): 0.08 µg/mL
EC90 (median) (R5 HIV-2 310072; HIV-2 310072, R5): 1.4 µg/mL
MPI (maximum percent inhibition) (R5 HIV-2 310072; R5 HIV-2 310072, individual assays (Source)): 92% and 96% and 97%
MPI, Median (R5 HIV-2 310072; R5 HIV-2 310072, median of assays with R^2 >= 0.7): 96%
